# Measured values reported in PMC2504287 (Nucleic Acids Research, 2008).
# T1: C.Esp1396I controller protein (UniProt Q8GGH0 1-79)
# T1 sequence: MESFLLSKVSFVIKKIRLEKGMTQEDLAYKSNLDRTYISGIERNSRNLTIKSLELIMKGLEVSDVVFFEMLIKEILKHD
# B1: C.Esp1396I controller protein (wild type) (natural protein)
# chain: GSHMESFLLSKVSFVIKKIRLEKGMTQEDLAYKSNLDRTYISGIERNSRNLTIKSLELIMKGLEVSDVVFFEMLIKEILKHD
# B2: C.Esp1396I E25A mutant (natural protein)
# chain: GSHMESFLLSKVSFVIKKIRLEKGMTQADLAYKSNLDRTYISGIERNSRNLTIKSLELIMKGLEVSDVVFFEMLIKEILKHD
# B3: OL (OR mutated) (dsDNA)
# DNA 1: ATGTGACTTATAGTCCGTCTAGCCTAGCCTAGCCT
# DNA 2: AGGCTAGGCTAGGCTAGACGGACTATAAGTCACAT
# Key:
# [1] = target: the molecule itself
# native gel or EMSA = target: the molecule itself; experiment: native gel or EMSA
# [2] = target: T1, C.Esp1396I controller protein; experiment: EMSA
binder,measurement,setting,value
B1,Kd,[1],~600 nM
B2,binding result,native gel or EMSA,binds
B3,binding result,[2],binds
